“Also recorded” adds a separate entry of the source.
What was measured:
MIK2^LRR = test: In vitro pull-down with MIK2^LRR; assay type: binding, Arabidopsis; conditions: Ni-NTA, excess AtLURE1.2, on ice 30 min, washed five times; SDS-PAGE, Coomassie blue
Description: (§1) The genes of AtPRK3 ^LRR (residues 1–241), AtPRK4 ^LRR (residues 1–277), AtPRK5 ^LRR (residues 1–279), AtPRK6 ^LRR (residues 1–262), MIK1 ^LRR (residues 1–633), MIK2 ^LRR (residues 1–707) were amplified from Arabidopsis cDNA library by PCR and cloned into pFastBac-1 vector with a C-terminal 6 × His-tag. Their identities were confirmed by sequencing. The mature form of AtLURE1.1 (residues 20–94), AtLURE1.2 (residues 20–90), AtLURE1.3 (residues 21–91), and AtLURE1.4 (residues 20–90) were cloned into pFastBac-1 vector, with a modified N-terminal hemolin signal peptide and 6 × His-SUMO tag. Point mutation constructs were generated by QuickChange Site-Directed Mutagenesis Kit (Strategene). All the proteins were expressed using the Bac-to-Bac baculovirus expression system (Invitrogen) in High Five cells at 22 °C. One liter of High Five cells (2.0 × 10^6 cells mL^−1) cultured in the medium from Expression Systems was infected with 25 ml recombinant baculovirus and the media was collected after 72 h of infection. Secreted LRR proteins were purified using Ni-NTA (Novagen) and size-exclusion chromatography (Hiload 200, GE Healthcare) in buffer containing 10 mM Bis-Tris pH 6.0 and 100 mM NaCl. […]
(§2) The purified His-tagged ectodomains of AtPRK proteins and MIK1, 2 were used to pull-down the AtLURE1.2 peptide. […] All the eluted samples were analyzed by SDS-PAGE and visualized by Coomassie blue staining. […]

[1] = tested on: semi-in-vivo pollen tubes (wild type); test: AtLURE-responsive wavy assay, wild-type pollen tubes; assay type: cell-based, Arabidopsis; conditions: 250 nM peptide in solid pollen germination medium
Protocol: (§3) Attraction activities of mutant AtLURE1.2 peptides were examined for semi-in-vivo pollen tubes growing through cut, pollinated pistils by gelatin-beads assay and wavy assay, [20]. For the gelatin-beads assay, pollen tubes were grown on solid pollen germination medium poured into a mold made with 1-mm thick silicone rubber and cover glasses. After hand-pollination, the topside cover glass was removed and the medium was covered with hydrated silicone oil (KF-96–100CS; Shin-Etsu). Attraction of pollen tubes toward the peptide was evaluated using AtLURE1 peptide containing gelatine beads under an inverted microscope (IX71, Olympus) equipped with a micro-manipulator (Narishige). For the AtLURE1-responsive wavy assay, the purified AtLURE1.2 peptide was added to solid pollen germination medium, which was melted at 70 °C and then cooled to a certain degree. The mixture was mixed by vortexing and poured into the mold. Pollen tubes of each genotype were grown through cut styles, as mentioned above. Each peptide (25 μM in 10 mM Bis-Tris (pH 6.0) and 100 mM NaCl) was diluted to 250 nM by cultivation medium in both assays. […]
(§4) pollen tubes. Fluorescence is from mRuby2 fused to the C-terminal of PRK6 receptors, showing that all of mutant PRK6 receptors localize normally to the plasma membrane of the pollen tube tip. […]

[2] = tested on: prk6 pollen tubes transformed with PRK6 D234A; test: Wavy assay, prk6 pollen tubes transformed with D234A PRK6; assay type: cell-based, Arabidopsis; conditions: 250 nM wild-type AtLURE1.2 in medium
Protocol: as §3, §4

[3] = tested on: AtPRK3^LRR and AtPRK6^LRR; test: Gel filtration assay, AtPRK3^LRR-AtPRK6^LRR interaction in the presence of AtLURE1.2; assay type: binding, Arabidopsis
Protocol: The AtPRK6^LRR and AtLURE1.2 proteins purified as described above were subjected to gel filtration (Hiload 200, GE Healthcare) in buffer containing 10 mM Bis-Tris pH 6.0 and 100 mM NaCl. A mixture of the purified AtPRK6^LRR and AtLURE1.2 proteins with a molar ratio of about 1:3 were incubated in 4 °C for 30 min before gel filtration analysis. Samples from relevant fractions were applied to SDS-PAGE and visualized by Coomassie blue staining. Similar procedures were used to verify the interaction of AtLURE1.2 with the other LRR proteins. […]
the presence or absence of AtLURE1.2 in vitro. […]
assay. Left panel: gel-filtration profile of the AtPRK3LRR and AtPRK6LRR proteins.
A280 (mAU), […] at 280 nm. Right panel: Coomassie blue staining of the peak fractions shown on the top following SDS–PAGE. M, molecular weight ladder (kDa). Numbers on top of SDS-PAGE indicate elution […]
AtLURE1.2 under gel filtration assay. The assays were performed as described in […]
(1 picture or pasted object on this page, not shown here)

[4] = tested on: AtPRK^LRR proteins other than AtPRK6^LRR; test: In vitro pull-down with other AtPRK^LRR proteins; assay type: binding, Arabidopsis; conditions: Ni-NTA, excess AtLURE1.2, on ice 30 min, washed five times; SDS-PAGE, Coomassie blue
Description: as §1, §2

B1: AtLURE1.2: mature form of AtLURE1.2 (residues 20–90), defensin-like cysteine-rich peptide expressed in insect cells (protein)
chain: TLINGSSDEERTYSFSPTTSPFDPRSLNQELKIGRIGYCFDCARACMRRGKYIRTCSFERKLCRCSISDIK
modifications: left off: His6, N-terminal, cleaved | SUMO, N-terminal, cleaved
notes: mature form of AtLURE1.2 (residues 20–90), defensin-like cysteine-rich peptide expressed in insect cells
interaction in pull-down assay (MIK2^LRR): none of the other LRR proteins was found to interact
wavy pollen tube response [1]: caused pollen tube wavy response
wavy and branched pollen tube behavior [2]: branched behavior is not observed; also recorded: greatly compromised
AtPRK3^LRR-AtPRK6^LRR complex formation in the presence of AtLURE1.2 [3]: do not form a complex; also recorded: failed to detect AtPRK6^LRR−AtPRK3^LRR interaction
interaction in pull-down assay [4]: none of the other LRR proteins was found to interact
